Assay results published in the nanobody polyreactivity screen of Harvey et al. (2022).

Experiment: yeast display, Sf9 membrane polyspecificity reagent, FACS + sequencing; frameworks hold sequencing errors
In short: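 Sorting gates, low and high (top ~1%), were placed on anti-HA fluorescence to track expression and on streptavidin fluorescence to track reagent binding. A clone's polyreactivity label is taken from the gate it came out of. The reagent was 10% biotinylated, detergent-solubilized Sf9 membrane, applied for 1 hour at 4 °C to galactose-induced yeast display cells.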

| Sequence | polyreactivity (PSR sort gate) |
| --- | --- |
| QVQLVESGGGLVQAGGSLRLSCAASGRIFYFYAMVWYRQAPGKERELVAAISTSGGSTYYADSVKGRFTISRDNAKNTVYLQMNSLKPEDTAVYYCAARFRYYGSEYDYWGQGTQVTVSS | low polyreactivity |
| QVQLVESGGGLVQAGGSLRLSCAASGSTFVYNAMGWYRQAPGKERELVAAISTGGSTYYADSVKGRFTISRDNAKNTVYLQMNSLKPEDNAVYYCAAKQRTTLYDYWGQGTQVTVSS | high polyreactivity |
| QVQLVESGGGLVQAGGSLRLSCAASGFTFSSYAMGWYRQAPGKERELVARISSGSSTNYADSVKGRFTISRDNAKNTVYLQMNSLKPEDTAVYYCAARYTARRQSYGYWGQGTQVTVSS | high polyreactivity |
| QVQLVESGGGLVQAGGSLRLSCAASGGTFVYYAMGWYRQAPGKERELVAAINWSGGSTYYADSVKGRFTISRDNAKNTVYLQMNSLKPEDTAVLLLQRSGLRRSGVWFDYWGQGTQVTVSS | low polyreactivity |
| QVQLVESGGGLVQAGGSLRLSCAASGFTFPYNAMGWYRQAPGKERELVAAISSTGGITYYADSVKGRFTISRDNEKNTVYLQMNSLKPEDTAVYYCNAGYPDYDWTWWHISYDYWGQGTQVTVSS | low polyreactivity |
| QVQLVESGGGLVQAGGSLRLSCAASGRIFVRYTMGWYRQAPGKERELVAAITKRGGSTYYADSVKGRFTISRDNAKNTVYLQMNSLKPEDTAVYYCATDGLGYNRPQDEYWGLGTQVTVSS | high polyreactivity |
| QVQLVESGGGLVQAGGSLRLSCASSGSTFVSYAMGWYRQAPGKERELVAGISWSGTRTYYADSVKGRFTISRDNAKNTVYLQMNSLKPEDTAVYYCAALDSSYNWYGYWGQGTQVTVSS | high polyreactivity |
| QVQLVESGGGVVQAGGSLRLSCAASGRIFRINGMGWYRQAPGKEREFVAAITSGGGTYYADSVKGRFTITRDNAKNTVYLQMNSLKPEDTAVYYCAAPSYRTRYYYWGQGTQVTVSS | high polyreactivity |
| QVQLVESGRGLVQAGGSLRLSCAASGFTCRWYAIGLYRQAPGKERELVAAISRDGSTNYADSVKGRFTISRDNAKNTVYLQMNSLKPEDTSVYYCAKRYYRYPYSQGDYWGQGTQVTVSS | high polyreactivity |
| QVQHVESGGGLVQAGGSLRLSCAAYGSIFVYYAMGWYRKAPGKERDLFAAISSSGDTTYYADSVKGRYTISRDNAKNTVYLQMNSLKPEDTAVYYCAARVRVYRHASNYYWGQCTQVTVSS | high polyreactivity |
| QVQLVESGGGLVQAGGSLRLSCAASGIIFDSYAMGWYRQAPGKERELVAAITSDSGRTYYADSVKGRFTISRDNAKKTVYLQMNSLKPEDTAVYYCAKRWDGPYDYWGQGTQVTVSS | low polyreactivity |
| QVQHVESGGGLVQAGGSLRLSCAASGYTFYFYAMGWYRQAPGKERELVAAITGGGTTSYADSVKGRFTISRDNAKNTVYLQMNSLKPEDTAVYYCNVLFADKSDYWGPGTQVTVSS | low polyreactivity |
| QVQLVESGGGLVQAGGSLRLSFAASGRIFYSNARGWYRQAPGKERELVATITRSSGITYYADSVKGRFTISRDNAKNTVYLQMNSLKTEDTAVYYWADRYSNRWARVSGYDYWGQGTQVTVSS | high polyreactivity |
| QVQLVESGGGLDQAGGSLRLSCADSGSIFESYAMGWYRQAPGKERELVAAITKRGGSTYYADSVKGRFTISRDNAKNTVYLQMNSLKPEDTAVYYCNARWPGIGPIYDYWGQGTQVTVSS | low polyreactivity |
| QVQLVESGGGLVQAGGSLRLSCAASGLTFPVYTMGWYRQAPGKEREFVAAITYNGGRTYYADSVKGRFTISRDNAKNTVYLQMNSLKPEDTAVYYCAAEYGTYFVRYYAGASYRYGYWGQGTQVTVSS | low polyreactivity |
| QVQLVESGGGLVQAGGSLRLSCAASGFTLWLNAMGWYRQAPGKERELVAAITTSDDGTYYADSVKGRFTISRDNAKKTVYLQMNSLKPEDTAVYYCAADYYSVLYDYWGQGTQVTVSS | low polyreactivity |
| QVQLVESGGGLVQAGGSLRLSCAASGGIFGYYTMGWYRQAPGKERELVAVITRSGGSTYYADSVKGRFTISRDNAKNTVYLQMNSLKPEDTAVYYCASGWRGGRYRYFAYDYWGQGTQVTVSS | high polyreactivity |
| QVQLVESGGGLVQAGGSLRLSCAASGGTFQYYTMGWYRQAPGKERELVAGISSGGSTYYPDSVKGRFTISRDNAMNTVYLQMNRLKPEVTAVYYCNAVSRRKTYGYRIIKYDYWGQGTQVTVSS | high polyreactivity |
| QVQLVESGGCLVQAGGSLRLSCAASGFIIRYYAMGWYRQAPGKERELDAAITRGGSTYYADSVKGRFRISRDNAKNTVYLQMNSLNPEDTAVYYCAARLYTQYYYWGQGTQVNVSS | high polyreactivity |
| QVQRVESGGGLVQAGGSLRLSCAASGSIFEPYAMGCYRQAPGKESELVATAITYSGGSTYYADSVKGRFTISRDNAKNTVYLQMNSLKPEDTAVYYCAADDLGDGVYKLDYWGLGTQVTVSS | low polyreactivity |
| QYQLVESGGGLVHEGGSLSLRCAASGSNLYYYAMGWYRKAPGKERDLDAAITYSGGNTYYADSVKGRFTISRDNAKNNVYLQMNSLKPEDTAVYYCAADDWSSDYIRYEYWGQGTQVTVSS | low polyreactivity |
| QVQLQESAGGLEQAGGSLRRICSARCNINSDASMGSYRQAPGKQREHAASTTKGSRTHDAESVKGRLTIRDNAKNTVYLQMNSLKPDDTAVCYSAVTYPYWGDYTYWGQGTQVTVSS | low polyreactivity |

| Sequence | polyreactivity (PSR sort gate) |
| --- | --- |
| QVQLVESGGGLVQAGGSLRLSCAASGRIFKAYAMGWSRQAPGKERELVAAITSTGSTYYADSVKGRFTISRDNAKNTVYLQMNSLKPEDTAVYYCNAVRYLEYDWGQGTQVTVSS | high polyreactivity |
| QVQLEESGGGLVQSGGSLRLSCAASGSIFYGYTMGWYRQAPGKEMEFVAAITGSGGSTYFADSVKGRFTISRDNAKKTVYLQMNSLKPEDTSVYYCAARRYVNRRYDYWGQGTQVTVSS | high polyreactivity |
| QVQLVESGGGLVQAGGSLRLSCAASGSTIYVYAMGWYRQAPGKERELVAAITDSGGSTYADSVKGRFTISRDNAKNTVYLQMNSLKPEDTAVYADSTYNWYYYYWGQGTQVTVSS | low polyreactivity |
| QVQLVESGGGLVQAGGSLSLSCAASGSILYFNAMGWYRQAPGKERELVAAISRSGGSTYYADSVKGRFTISRDNAKNTVYIQMNSLKPEDTAVYSCAASYTVYYWGQGTQVTVTS | high polyreactivity |
| QVQLVESGGGLVQAGGSLRLSCAASGSTFRFYAMGWYRQAPGKERELVAAISSGGSSTYYADSVKGRFTISRDNAKNTVYLQMNSLKPEDTAVYYCAADSYVVRWRERDYWGQGTQVTVSS | low polyreactivity |
| QVQLVESGGGLVQAGGSLRLSCAASGSIFDAYAMGWYRPATGKERELVAAITYSGGSTYYADSVKGRFTISRDNAKNTVYLQMNSLKPEDTAVYYCNTDSRVRTWFRAFTYDSWGQGTQVTVSS | low polyreactivity |
| QVHLVESGGGLVLAGGSLRLSCAASGSTFIWNAMGWYRQAPGKERELVAAIRRGSSTNYADSVKGRFTISRDNAKNTVYLQMNSLYPEDTAVYYCAKKPVTTDVSSETFFLEMDYWGQGTQVTVSS | low polyreactivity |
| QVQLVESVGGLVQAGGSLRLSCAASGRIFGYNAMGWYRQAPGKEWELVAGITSVGRTYYADSVNGRFTISRDNAKNTVYLQMNSLKPEDTAVYYCNAASYSLAVTAEFEDMDYWGQGTQVTVSS | low polyreactivity |
| QVQLVESGGGLVQAGGSLRLSCAASGFTFTPYGMGWYRQAPGKERELVAAITWNGGRTYYADSVKGRFTISRDNAKNTVYLQMNSLKPEDTAVYYCAAVAWSWQKRGYWGQGTQVTVSS | high polyreactivity |
| QVQLVESGGGLVQAGGSLRLSCAASGFIFSYYVMGWYREAPGKERELVAAISWNGGSTFYADSVKGRFTISRDNAKNSVYLQMNSLKPEDTAVYYCAAYPRFYGGKYGEYGYWGQGTQVTVSS | high polyreactivity |
| QVQLVESGGGLVQAGGSLRLSCAASGSISFINAMGWYRQAPGKERELVAAITPGASTNYADSVKGRFTISRDNAKNTVYLQLNSLKPEDTAVYFCAAGWVSFEDWVLGSYYEYDYWGLGTQVTVSS | low polyreactivity |
| QVQLVESGGGLVQAGGSLRLSCAASGSTFRSNAMGWYRQAPGKERELVAAISSRVGTTYYADSVKGRFTISRDNAKNTVYLQMNSLKPEDTAVYYCAAQGWRYYRTVVPMDYWGQGTQVTVSS | low polyreactivity |
| QVQLVESGGGLVQAGGSLRLSCPASGSTIPVNAMVWYRQAPGKERELVAAIRSSTGRTYYADSVKGRFTTSRDNAKNTVYLQMNSLKPEDTAVYYCAADYRYNRGITSNKDYDYWGQGTQVTVSS | low polyreactivity |
| QVQLVESGGGLVQAGGSLRLSCAASGITLYINAMGWYRQAPGKERELVAAITRIGGRTYYADSVKGRFTISRDNAKNTVYLQMNSLKPEDTAVYYCNARTYNAFNYWGQGTQVTVSS | high polyreactivity |
| QVQHVESGGGIVQAGGSLRLSCAASGITFSRKAMGRYRQATGKERELVATITSGGSTNYADSVKGRFTISRDNAKNTVYLQMNRLKPEDTAVYYCNAVWNTFISGRSYDYWGQGTQVTVSS | low polyreactivity |
| QVQLQESGGGLVQADGSLRLSCAASGTIFTQSYMGWYRQAPGKEREFVAGISNGTNTNYGDSVKGRFTISRDNAKNTVYLQMNSLKLEDTAVYYCAVKGFYVDVLAYWGQGTHVTVSS | high polyreactivity |
| QVQLVESGGGLVQAGGSLSLSCAASGSNFNVYVMGWYRQAPGKERELVAAITYRGASTYYADSVKGRFTFSRDNAKNTVYLQMNSLKPEDTAVYYCAARYGYRSVYRSYNSRPYDYWGQGTQVTVSS | high polyreactivity |
| QVQLVESGGGLVQAGGSLRLSCAASGSTFGHYARGWYRQATGKERELVAAISFTGARTYYADSVKGRFTISRDNAKNTVYLQMNSLKPEDTAVYYCIARGDYRISDYWGQGTQVTVSS | high polyreactivity |
| QVQLVESGGGLVQAGGSLRLSCAASGRTFRQYAMGWYRQAPGKERELVAAISSSGGRTYYADSVKGRFTISRDNAKNTVYLQMNSLKPEDTAVYYCNAARYSYCFDSWGQGTQVTVSS | high polyreactivity |
| QVQLVESGGGLVQAGGSLRLSCAASGRIFRYYAMGWYRQAPGKERELVAAISSSGGSTYYADSVKGRFTISRDNAKNTVDLQMNSLKPEDTAVYYCAAKYSRRSSVSYYYWGQGTQVTVSS | high polyreactivity |
| QVQLVESGGGLVQAGGSLRLICAASGFTFDENAMGWYRQAPGINYSGASTYYADSVKGRFTISRDNAKNTVYLQMISLKPEDTAVYYCAADYETGAVSILDDYWGQGTQVTVSS | low polyreactivity |
